Experimental data taken from paper PMC8605372.

Legend:
[1] = target: dansyl-Gab2(637-649) peptide (UniProt Q9UQC2); assay: Stopped-flow fluorescence (FRET Trp112 to dansyl), pseudo-first-order association kinetics; settings: 298 K in Results, 283 K in Methods (conflict in the article), no added salt (50 mM buffer only), 50 mM acetate at pH 5.0 and 5.5, 50 mM Bis-Tris at pH 6.0 and 6.5, 50 mM Hepes at pH 7.0 and 7.5, 50 mM Tris-HCl at pH 8
[2] = target: dansyl-Gab2(637-649) peptide (UniProt Q9UQC2); assay: Stopped-flow fluorescence (FRET), displacement kinetics; settings: 298 K in Results, 283 K in Methods (conflict in the article), no added salt (50 mM buffer only), 50 mM acetate at pH 5.0 and 5.5, 50 mM Bis-Tris at pH 6.0 and 6.5, 50 mM Hepes at pH 7.0 and 7.5, 50 mM Tris-HCl at pH 8
[3] = target: dansyl-Gab2(637-649) peptide (UniProt Q9UQC2); assay: Stopped-flow kinetics; K D from the rate constants of C1 and C2; settings: 298 K in Results, 283 K in Methods (conflict in the article), no added salt (50 mM buffer only), 50 mM acetate at pH 5.0 and 5.5, 50 mM Bis-Tris at pH 6.0 and 6.5, 50 mM Hepes at pH 7.0 and 7.5, 50 mM Tris-HCl at pH 8
[4] = target: dansyl-Gab2(637-649) peptide (UniProt Q9UQC2); assay: Stopped-flow fluorescence (FRET), pseudo-first-order association kinetics, ionic-strength series; settings: pH 8.0, 298 K in Results, 283 K in Methods (conflict in the article)
His169 = His169 (UniProt position 169, KSKVTHVMIRC); assay: kinetics (stopped-flow fluorescence/FRET binding and displacement); settings: 283 K according to Methods (stopped-flow binding and displacement) and the Figure S2 legend. Results text states 298 K.; 50 mM buffer, no added salt stated for the pH series; 50 mM acetate (pH 5.0, 5.5), 50 mM Bis-Tris (pH 6.0, 6.5), 50 mM Hepes (pH 7.0, 7.5), 50 mM Tris-HCl (pH 8.0); 2 mM DTT in all; Folded domain, cysteines reduced. The binding reaction with the phosphopeptide was followed, so the pKa is derived from both kon and koff.

Substance | k on ([1]; pH 5.0) [M⁻¹ s⁻¹] | k on ([1]; pH 5.5) [M⁻¹ s⁻¹] | k on ([1]; pH 6.0) [M⁻¹ s⁻¹] | k on ([1]; pH 6.5) [M⁻¹ s⁻¹] | k on ([1]; pH 7.0) [M⁻¹ s⁻¹] | k on ([1]; pH 7.5) [M⁻¹ s⁻¹] | k on ([1]; pH 8.0) [M⁻¹ s⁻¹] | k off ([2]; pH 5.0) [s⁻¹] | k off ([2]; pH 5.5) [s⁻¹] | k off ([2]; pH 6.0) [s⁻¹] | k off ([2]; pH 6.5) [s⁻¹] | k off ([2]; pH 7.0) [s⁻¹] | k off ([2]; pH 7.5) [s⁻¹] | k off ([2]; pH 8.0) [s⁻¹] | K D ([3]; pH 5.0) [µM] | K D ([3]; pH 5.5) [µM] | K D ([3]; pH 6.0) [µM] | K D ([3]; pH 6.5) [µM] | K D ([3]; pH 7.0) [µM] | K D ([3]; pH 7.5) [µM] | other results
SHP2 C-SH2 domain H116A H116A | 1.6e+07 | 2.9e+07 | 1.9e+07 | 2e+07 | 1.5e+07 | 1.1e+07 | 1.4e+07 | 103 | 98 | 105 | 130 | 170 | 204 | 196 | 6.6 | 3.4 | 5.6 | 6.4 | 11 | 20 | K D ([3]; pH 8.0): 14 µM
SHP2 C-SH2 domain H132A H132A | 2.2e+07 | 2.9e+07 | 4.5e+07 | 1.4e+07 | 2e+07 | 1.8e+07 | 1.1e+07 | 80 | 69 | 91 | 143 | 168 | 219 | 287 | 3.6 | 2.4 | 2 | 10.4 | 8.5 | 12 | K D ([3]; pH 8.0): 27 µM
SHP2 (PTPN11) C-terminal SH2 domain, wild type | 2.11e+07 | 2.86e+07 | 2.41e+07 | 2e+07 | 2.2e+07 | 1.36e+07 | 9.9e+06 | 80 | 79 | 112 | 141 | 147 | 234 | 210 | 3.8 | 2.8 | 4.7 | 6.9 | 6.8 | 17.2 | k on ([4]; highest of the series: 50 mM Tris-HCl + 150 mM NaCl, Tris-HCl 50 mM pH 8.0): 6.4e+06 ± 500000 M⁻¹ s⁻¹; k on ([4]; lowest of the series: 10 mM Tris-HCl, no NaCl, Tris-HCl 10 mM pH 8.0): 3.14e+07 ± 3.8e+06 M⁻¹ s⁻¹; K D ([3]; pH 8.0): 21.3 µM
Tyrosine-protein phosphatase non-receptor type 11 (SHP2), C-terminal SH2 domain (C-SH2) (Homo sapiens (inferred; organism not stated in the article)) |  |  |  |  |  |  |  |  |  |  |  |  |  |  |  |  |  |  |  |  | pKa (His169): 7.1 ± 0.2
SHP2 C-SH2 domain H114A H114A | 1.08e+07 | 3.2e+07 | 5.2e+07 | 2.4e+07 | 3.1e+07 | 2.1e+07 | 2.3e+07 | 92 | 102 | 148 | 125 | 144 | 253 | 263 | 8.5 | 3.2 | 2.9 | 5.2 | 4.7 | 12 | K D ([3]; pH 8.0): 12 µM
SHP2 C-SH2 domain H143A H143A | 1.1e+07 | 3.2e+07 | 2e+07 | 9e+06 | 8e+06 | 1.3e+07 | 1.4e+07 | 154 | 127 | 149 | 226 | 183 | 225 | 148 | 14.3 | 4 | 7.4 | 25 | 23 | 17 | K D ([3]; pH 8.0): 10.8 µM
SHP2 C-SH2 domain H196A H196A | 2.4e+07 | 4e+07 | 2.1e+07 | 3.9e+07 | 3.7e+07 | 1.3e+07 | 1.2e+07 | 125 | 114 | 116 | 132 | 125 | 172 | 162 | 5.3 | 2.9 | 5.4 | 3.4 | 3.4 | 13 | K D ([3]; pH 8.0): 13 µM
